Measurements published in article doi:10.1101/2025.05.23.654710.

Key:
Experiment in all cases: EMSA
[1] = target: T1, Msn2 IDR (Saccharomyces cerevisiae, UniProt P33748)
T1 sequence: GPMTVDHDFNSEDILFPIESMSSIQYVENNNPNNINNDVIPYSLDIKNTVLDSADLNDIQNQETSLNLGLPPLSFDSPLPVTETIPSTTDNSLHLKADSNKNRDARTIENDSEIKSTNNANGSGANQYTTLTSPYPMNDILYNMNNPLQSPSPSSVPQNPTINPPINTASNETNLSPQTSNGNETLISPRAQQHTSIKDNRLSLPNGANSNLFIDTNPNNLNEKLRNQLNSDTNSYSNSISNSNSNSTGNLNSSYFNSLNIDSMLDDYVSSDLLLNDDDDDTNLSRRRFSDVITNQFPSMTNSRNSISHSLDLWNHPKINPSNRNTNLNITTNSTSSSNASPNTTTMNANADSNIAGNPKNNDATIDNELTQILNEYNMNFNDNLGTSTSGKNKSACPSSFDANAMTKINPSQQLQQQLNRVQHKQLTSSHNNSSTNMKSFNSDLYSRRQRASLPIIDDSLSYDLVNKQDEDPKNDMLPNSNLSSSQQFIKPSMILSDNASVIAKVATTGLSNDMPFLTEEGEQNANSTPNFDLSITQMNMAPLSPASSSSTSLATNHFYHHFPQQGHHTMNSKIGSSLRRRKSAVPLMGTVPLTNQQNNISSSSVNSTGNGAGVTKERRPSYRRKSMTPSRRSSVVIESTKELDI

[2] = target: T2, Msn2 WT (Saccharomyces cerevisiae, UniProt P33748)
T2 sequence: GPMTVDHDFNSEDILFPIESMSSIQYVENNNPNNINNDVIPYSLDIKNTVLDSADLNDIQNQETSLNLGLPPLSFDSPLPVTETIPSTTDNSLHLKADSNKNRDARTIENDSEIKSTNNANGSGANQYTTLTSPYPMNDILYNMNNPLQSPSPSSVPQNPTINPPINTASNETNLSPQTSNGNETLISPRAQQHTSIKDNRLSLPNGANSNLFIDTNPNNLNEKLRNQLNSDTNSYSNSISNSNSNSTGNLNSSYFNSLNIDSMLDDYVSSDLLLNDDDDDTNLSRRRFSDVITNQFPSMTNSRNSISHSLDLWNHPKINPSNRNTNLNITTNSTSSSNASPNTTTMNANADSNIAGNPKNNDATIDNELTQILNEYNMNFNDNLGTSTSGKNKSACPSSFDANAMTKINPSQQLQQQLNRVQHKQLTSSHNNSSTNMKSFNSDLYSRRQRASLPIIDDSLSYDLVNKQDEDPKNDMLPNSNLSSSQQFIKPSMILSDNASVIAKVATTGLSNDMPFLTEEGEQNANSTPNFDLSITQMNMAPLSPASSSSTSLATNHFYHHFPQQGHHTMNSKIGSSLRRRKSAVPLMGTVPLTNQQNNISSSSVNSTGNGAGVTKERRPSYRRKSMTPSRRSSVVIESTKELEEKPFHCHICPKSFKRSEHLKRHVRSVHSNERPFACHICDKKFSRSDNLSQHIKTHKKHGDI

[3] = target: T3, Msn2 DBD (Saccharomyces cerevisiae, UniProt P33748)
T3 sequence: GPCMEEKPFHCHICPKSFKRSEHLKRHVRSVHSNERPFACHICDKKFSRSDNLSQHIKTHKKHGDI

Measured: binding result

B1: 51 bp DNA with motif (dsDNA)
DNA 1: CGAAATTATATGGATGAGTAGGTGGGGAAGGAAGTATGTGTAGGTGGCAGG
DNA 2: CCTGCCACCTACACATACTTCCTTCCCCACCTACTCATCCATATAATTTCG
binds: all assays above
